Source: patent US20230235029A1 (INTEGRATED BIOTHERAPEUTICS, published 2023)

What was measured:
[1] = biological target: Marburg virus Angola GP on rVSV pseudotype (Marburg virus, Angola strain) (UniProt Q1PD50)
[2] = biological target: Marburg virus Musoke GP on rVSV pseudotype (VSV-MARV Musoke GP) (Marburg virus, Musoke strain) (UniProt P35253)
[3] = biological target: RAVV GP on rVSV pseudotype (VSV-MARV RAVV GP) (Ravn virus) (UniProt Q1PDC7)
[4] = biological target: T1, Marburg virus Musoke GP on rVSV pseudotype (VSV-MARV Musoke GP) (Marburg virus, Musoke strain, UniProt P35253 19-681); experiment: cell-based or functional assay
T1 sequence: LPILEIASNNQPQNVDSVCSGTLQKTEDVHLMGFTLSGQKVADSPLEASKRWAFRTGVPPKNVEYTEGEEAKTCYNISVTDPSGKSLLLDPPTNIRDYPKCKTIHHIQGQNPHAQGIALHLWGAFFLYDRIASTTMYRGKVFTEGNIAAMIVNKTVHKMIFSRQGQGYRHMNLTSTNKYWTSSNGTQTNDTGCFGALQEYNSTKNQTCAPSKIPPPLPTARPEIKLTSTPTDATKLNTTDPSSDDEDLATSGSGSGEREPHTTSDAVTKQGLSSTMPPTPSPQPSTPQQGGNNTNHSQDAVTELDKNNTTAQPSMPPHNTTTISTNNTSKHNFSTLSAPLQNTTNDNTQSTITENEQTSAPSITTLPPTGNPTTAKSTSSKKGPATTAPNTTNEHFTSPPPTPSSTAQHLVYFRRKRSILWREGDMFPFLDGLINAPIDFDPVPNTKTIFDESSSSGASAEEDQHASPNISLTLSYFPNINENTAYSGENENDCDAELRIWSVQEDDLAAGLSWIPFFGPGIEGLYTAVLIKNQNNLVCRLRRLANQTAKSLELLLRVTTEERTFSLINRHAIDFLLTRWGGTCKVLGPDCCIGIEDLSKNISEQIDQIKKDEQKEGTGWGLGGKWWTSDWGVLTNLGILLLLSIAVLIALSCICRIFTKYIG

[5] = biological target: T2, RAVV GP on rVSV pseudotype (VSV-MARV RAVV GP) (Ravn virus, UniProt Q1PDC7 19-681); experiment: cell-based or functional assay
T2 sequence: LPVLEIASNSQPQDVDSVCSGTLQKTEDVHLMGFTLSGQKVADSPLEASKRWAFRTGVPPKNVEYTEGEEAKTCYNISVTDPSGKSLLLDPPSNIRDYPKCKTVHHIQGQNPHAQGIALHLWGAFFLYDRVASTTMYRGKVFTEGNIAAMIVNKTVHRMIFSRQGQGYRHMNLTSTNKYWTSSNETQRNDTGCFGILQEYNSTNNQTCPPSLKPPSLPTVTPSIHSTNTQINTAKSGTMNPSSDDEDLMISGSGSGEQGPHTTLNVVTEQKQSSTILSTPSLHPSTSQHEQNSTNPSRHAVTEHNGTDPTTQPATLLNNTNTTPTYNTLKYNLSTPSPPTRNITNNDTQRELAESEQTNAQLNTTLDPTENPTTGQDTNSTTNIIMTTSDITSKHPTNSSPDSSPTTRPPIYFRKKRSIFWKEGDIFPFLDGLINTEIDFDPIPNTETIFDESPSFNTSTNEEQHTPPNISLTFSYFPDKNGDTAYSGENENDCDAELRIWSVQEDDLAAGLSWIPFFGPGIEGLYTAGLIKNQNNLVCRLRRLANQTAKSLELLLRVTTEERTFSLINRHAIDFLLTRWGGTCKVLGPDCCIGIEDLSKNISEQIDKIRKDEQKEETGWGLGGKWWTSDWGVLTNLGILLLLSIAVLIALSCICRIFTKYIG

[6] = biological target: T3, Marburg virus Angola GP on rVSV pseudotype (Marburg virus, Angola strain, UniProt Q1PD50 19-681); experiment: cell-based or functional assay
T3 sequence: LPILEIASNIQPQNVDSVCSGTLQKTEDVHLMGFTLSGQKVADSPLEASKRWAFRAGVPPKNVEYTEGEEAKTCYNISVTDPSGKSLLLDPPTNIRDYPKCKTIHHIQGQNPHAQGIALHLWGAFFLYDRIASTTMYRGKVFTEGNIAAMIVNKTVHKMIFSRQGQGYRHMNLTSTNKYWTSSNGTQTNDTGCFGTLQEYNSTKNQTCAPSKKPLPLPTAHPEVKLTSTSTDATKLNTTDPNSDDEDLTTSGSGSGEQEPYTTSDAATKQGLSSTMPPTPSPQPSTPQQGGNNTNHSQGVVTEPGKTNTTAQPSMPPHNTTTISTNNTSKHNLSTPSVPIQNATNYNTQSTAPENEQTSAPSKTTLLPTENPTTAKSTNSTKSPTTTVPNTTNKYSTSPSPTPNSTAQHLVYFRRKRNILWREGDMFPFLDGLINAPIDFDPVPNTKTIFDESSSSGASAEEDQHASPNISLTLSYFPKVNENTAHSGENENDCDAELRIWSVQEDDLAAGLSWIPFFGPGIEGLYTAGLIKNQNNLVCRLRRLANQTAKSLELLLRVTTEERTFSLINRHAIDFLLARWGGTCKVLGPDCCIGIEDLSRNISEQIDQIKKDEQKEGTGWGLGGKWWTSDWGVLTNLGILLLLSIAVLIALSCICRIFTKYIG

[7] = biological target: T1, Marburg virus Musoke GP on rVSV …; experiment: cell-based or functional assay; remark: listed apart in the source

MR191 (antibody)
NT50 [1]: 3.81 µg/mL
NT50 [2]: 2.77 µg/mL
NT50 [3]: 7 µg/mL

B1: R80 (antibody, V domains shown)
VH: EVQLVESGGGLAKPGGSLRLSCAASGFTFNDYWLFWVRQAPGRGLEWISTINRPGSSTFYADSVKGRFTISRENANNALYLQMDSLRPEDTAVYYCARDQGRTVGYLDYWGQGVLVTVSS
VL: QSALTQPRSVSGSPGQSVTISCTGTSSDIGSYSYVSWYQQHPGTAPKLIIYDDSERPSGVSDRFSGSKSGNTASLTISGLQAEDEADYYCSSYAGSNTWVFGGGTRLTVL
NT50 [4]: 0.21 µg/mL
NT50 [5]: 0.3 µg/mL
NT50 [6]: 0.26 µg/mL

B2: R83 (antibody, V domains shown)
VH: QVQLQESGPGLVKPSETLSLTCAVSGASISDYWWNWIRQPPGKGLEWIGEIYGYSGSTYYNPSLKSRVTISKDASKKQLSLRLTSVTAADTAIYYCARDPLNQDAFDFWGLGLRVTVSS
VL: QSALTQPPSVSGSPGQSVTISCTGTSSDIGGYTYISWYQQYPGKAPKLMIYDVSKRPSGVSDRFSGSKSGNTASLTVSGLQAEDEADYYCSSYGGRKTLLFGGGTRLTVL
NT50 [4]: 0.05 µg/mL
NT50 [5]: 0.17 µg/mL
NT50 [6]: 0.03 µg/mL

B3: R217 (antibody, V domains shown)
VH: QVQLQESGPGLVKPSETLSLTCAVSGASISSNWWNWIRQPPGRGLEWLGEIYGYSGSTSYNPYLKSRVTISKDASRNQISLKLNAVTAADTAVYYCARDPLNQDAFDFWGQGLRVTVSS
VL: QSALTQPPSVSGSPGQSVTISCTGTSSDIGGYDYVSWYQHHPGKAPKLMIYDVNERPAGVSDRFSGSKSGNTASLTISGLQAEDEADYFCSSYAGRKTLLFGGGTRLTVL
EC50 (read off the curve) [7]: ~0.3 µg/mL

B4: R18 (antibody, V domains shown)
VH: QVQLQESGPGLVKASETLSLTCAVSGASISSYWWNWIRLSPGKGLEWIGEIYGYSGSTSYKSSLKSRVSISRDASKNQFSLKLTSVTAADTAVYYCARDPLNHDAFDFWGRGLRVTVSS
VL: QSALTQPPSVSGSPGQSVTISCAGTSSDIGGYTYVSWYQQHPGKAPKLMIYDVNERPSGVSDRFSGSISGNTASLTISGLQAEDEADYYCSSYAGSKTVLFGGGTRLSVL
NT50 [4]: 0.09 µg/mL
NT50 [5]: 0.18 µg/mL
NT50 [6]: 0.04 µg/mL
